Target: FAM-AIP-I, fluorescein-tagged AIP-I (Staphylococcus aureus (group I))
Experiment: fluorescence polarisation

AgrC-I^R238H, constitutively active full-length AgrC-I mutant, in nanodiscs (receptor)
Kd: 51 nM
